According to US20060235215A1 (published 2006):

T1: Elicitor responsive protein, bait fragment aa 50-145 (Oryza sativa, UniProt Q0JBH9 50-144)
T1 construct: bait; also called OsERP; PN20696
T1 sequence: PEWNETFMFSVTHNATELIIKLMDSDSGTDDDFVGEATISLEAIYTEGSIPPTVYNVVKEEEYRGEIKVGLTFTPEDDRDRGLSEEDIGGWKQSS

T2: O. sativa Chitinase, Class III, bait fragment aa 10-200 (Oryza sativa)
T2 construct: bait; also called OsCHIB1; PN19651
T2 chain: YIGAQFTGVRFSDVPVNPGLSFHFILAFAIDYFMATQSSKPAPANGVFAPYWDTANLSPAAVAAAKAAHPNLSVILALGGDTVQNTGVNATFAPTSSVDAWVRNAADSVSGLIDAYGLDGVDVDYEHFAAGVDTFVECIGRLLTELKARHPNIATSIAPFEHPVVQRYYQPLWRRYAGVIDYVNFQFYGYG

T3: O. sativa Chilling-Inducible Protein CAA90866, bait clone aa 100-250 (Oryza sativa)
T3 construct: bait; also called OsCAA90866; PN20311
T3 chain: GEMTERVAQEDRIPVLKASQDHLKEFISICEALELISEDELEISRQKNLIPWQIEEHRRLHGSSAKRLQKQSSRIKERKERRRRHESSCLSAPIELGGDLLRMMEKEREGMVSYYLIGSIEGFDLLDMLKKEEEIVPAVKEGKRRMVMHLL


What follows are binders tested against T1, Elicitor responsive protein, bait … (assay: yeast two-hybrid).

Binder | binding result
Novel protein PN30857, prey clone aa 1-148 (other, prey; AD fusion; input trait library) QDTRPLQAQRRRHGGGPQDRQREPSQGDFLRRQREEHPGGEEDRAPHGAGGHAAAGEGRGPRAGEHPQHQGGAAGAVGGGREGGGRAHLLRPRRHRDIGDRVGHTYCLSRLRRIAQNEQPSIHPCPSLAGQVIIRWEFRIGRDNNTFQ | binds
SSGTTSRPTASRTQQTKGRLTVTISLKAYSPGRTRSG (other, prey; AD fusion; input trait library) [Novel Protein PN29984, prey clone aa 5-41] | binds
APSSSSGTTSRPTASRTQQTKGRLTVTISLKAYSPGRT (other, prey; AD fusion; input trait library) [Novel Protein PN29984, prey clone aa 1-38] | binds
Novel protein PN30844, prey clone aa 1-64 (other, prey; AD fusion; input trait library) VAVRKKETRDGAMQTMPSRVQQGAADFEETLFVRCHLYCSGGAGTGKPLRFEPRPFLLSAVAVE | binds
Ubiquitin specific protease-like PN30843, prey clone aa 164-221 (other, prey; AD fusion; input trait library) RALQNFTAEELLDGGEKQYQCQRCRKKVVAKKKFTIDKAPYVLTIHLKRFSPFNPREK | binds
Novel protein PN29983, prey clone aa 1-131 (other, prey; AD fusion; input trait library) GVETVVTDTAGNKVVVTGAADAAELKERIEARTKKAVQIVSAGAGPPPKKDKEEKKDKDKKGGGDDKKAEKEKGGGGGDKKAEKEKGGGDKPKEEKKAKEPKEETVTLKIRLHCEGCIDRIKRRICKIKGG | binds
Pectinesterase-like PN30845, prey clone aa 1-64 (other, prey; AD fusion; input trait library) GDQGRTYLFRVSNVGVKTSVNVRIQGHSLRLVEVEGTHPVQNVYDSLDVHVGQSVAFLVTLDKA | binds
NAD(P) binding domain protein PN30868, prey clone aa 167-336 (other, prey; AD fusion; input trait library) YNELAQLRAGKSSKSKLLIAKFKSPKSLNGWEVDQGSYFPNTFASRFDEGIDASFDFSEAGQAVFSGFVFTRGGYVEISKRLSLPLGSTLDRYDGLLFSVGGNGRSYVVILETGPLADTSQSKKYFARMTTKVGFCRVRVPFSAFRPVNPQDPPLDPFLVHTLTIRFEPK | binds
Isp-4 like PN30870, prey clone aa 1-446 (other, prey; AD fusion; input trait library) GEEDEHPHEGRAGVERRRQHVVVLLPPPLAVLEHEVVEDGARDEPARDVGRRRRRHPGEPVGDDGDVDERDPLLLRERPAEQPHRHGQHGAGEEQPHQVAVQAVAAEQPGGADEPPDHRRVERDPVLGARPRAVRVQRLHVADVVDAAQHPPRHRQVHHAGDHRAHQLRRVHAPRRDLHVVPQLEVREERQRVHRADPPVDLEQQVRDRLPRQRVPDHELRDDVVPRLLVGGGLDDADGEGDDEGEGEGEEHPPPRQLHLLPVHERHDQRHGDAADEQHEEPPLRHLLVPPHQLRVHVHLRRRGAHRRPALPPDVPAVEQRHVHDRRREPQEPGPDGDGEQRAQVQLPVALVRRHVEVELPREHLGGVVLLPGRREQLVGEDWELPRVERVELPVAERHDEVDEHDEARGGVGDGRPRRHQRAPVVRRDAGPVQCEGADAEAVVAG | binds

Target: T2, O. sativa Chitinase, Class III, bait …
Test: yeast two-hybrid
Method: Yeast carrying the target gene construct was combined with yeast carrying the activation domain library. The two yeast strains mated to form diploid yeast and were plated on media that selected for expression of one or more Ga14p-responsive reporter genes. Thus, both hybrid proteins (i.e., the target “bait” protein and the activation domain “prey” protein) were expressed in a yeast reporter strain where an interaction between the test proteins results in transcription of the reporter genes […]. Colonies that arose after incubation were selected for further characterization. The activation domain plasmid was isolated from each colony obtained in the two-hybrid search. The sequence of the insert in this construct was obtained by sequence analysis (e.g., Sanger's dideoxy nucleotide chain termination method; see Ausubel et al., 1988, including updates up to 2002). Thus, the identity of positives obtained from these searches was determined by sequence analysis against proprietary and public (e.g., GENBANK®) nucleic acid and protein databases.
This example provides newly characterized rice proteins interacting with a rice chitinase, class III (OsCHIB1), and with rice cellulose synthase catalytic subunit, RSW1-like (OsCS). An automated, high-throughput yeast two-hybrid assay technology (provided by Myriad Genetics Inc., Salt Lake City, Utah) was used to search for protein interactions with the chitinase and cellulose synthase bait proteins.

Binder | binding result
Novel Protein PN22823, Similar to ABC Transporter Proteins, prey clone aa 25-106 (other, prey; AD fusion; input trait library; also called OsPN22823) SSSGKKVPLFSLFRYADRLDVLLMVVGTVGALGNGISQPLMTVLFGNVINSFGANTSGSVLRSVTKVKVSCWTMAGERQSAR | binds
Novel Protein PN29041, Fragment, Similar to A. thaliana Putative ATPase, prey clone aa 5-108 (other, prey; AD fusion; input trait library; two clones; also called OsPN29041) VQIRRALRALVDDHTDGLMDFEDTEVRSSEETDALEEARLAIEQVVIPKGESVQLLPRPPSIIASQVDLVESFKLKWESIGQEPNACLRILPQFVGVEEGGKSV | binds
AVREPKRYYDPSPAYPAPYHQQTNRDPYAYGNTTTGGYGYAYG (other, prey; AD fusion; input trait library; also called OsPN22020) [Novel Protein PN22020, Fragment, Similar to A. thaliana Putative Protein, prey clone aa 128-170] | binds
Novel Protein PN22020, Fragment, Similar to A. thaliana Putative Protein, prey clone aa 76-170 (other, prey; AD fusion; input trait library; three clones; also called OsPN22020) ANATDGVKPLVGSARLPLRDVLADTGIGARASRSLRLKRPSGRPHGRLEVRVAVREPKRYYDPSPAYPAPYHQQTNRDPYAYGNTTTGGYGYAYG | binds

What follows are binders tested against T4, O. sativa Serine/Threonine Protein Phosphatase PP2A-2, Catalytic Subunit, bait fragment aa 1-308 (Oryza sativa, UniProt A2XN40 1-307) (assay: yeast two-hybrid).
T4 construct: bait; also called OsPP2A-2; PN20254
T4 sequence (A2XN40 whole entry, the tested form may be a part): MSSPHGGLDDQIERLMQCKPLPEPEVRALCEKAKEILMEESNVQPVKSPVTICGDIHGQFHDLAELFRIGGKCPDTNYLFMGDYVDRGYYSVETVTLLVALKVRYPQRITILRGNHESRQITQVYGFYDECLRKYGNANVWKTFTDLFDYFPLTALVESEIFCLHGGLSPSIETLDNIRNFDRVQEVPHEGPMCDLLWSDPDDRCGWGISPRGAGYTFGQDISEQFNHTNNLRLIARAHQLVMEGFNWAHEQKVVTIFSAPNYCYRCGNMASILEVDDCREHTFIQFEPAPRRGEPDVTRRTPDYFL

Binder | binding result
O. sativa Putative Proline-Rich Protein AAK63900, prey clone aa 122-224 (other, prey; AD fusion; input trait library; also called OsAAK63900; PN23266) AAVAGKTHYRSALCASVTICGPIKKKIIDHFHKKPVPPKPEPKPEPPKPKPEPEHPFLDHIHKKEKHFFDHFHKKPVPPKPEPKPEPKPQPAPEYHNPSPPAN | binds
Novel Protein PN26645, Putative Protein Disulfide Isomerase-Related Protein Precursor, prey clone aa 24-164 (other, prey; AD fusion; input trait library; also called OsPN26645) PLPEACPVPTAAEEILGPGGTCTTLDRRGDPVGVIEGDEVTLAKAITLLHMNKDDYIAVLFYASWCPFSQECKPNFEILASLFPSIRHFAFEESSIRPSIISRYGIHGFPTLFLLNSTMRVRYHGPRTVKSLAAFYRDVSG | binds
Hypothetical Protein ORF020300-2233.2, Putative PP2A Regulatory Subunit, Similar to OsCAA90866, prey clone aa 93-387 (other, prey; AD fusion; input trait library; also called OsORF020300-2233.2) LLVPYYLGEMTERVAQEDRIPVLKASQDHLKEFISICEALELISEDELELSRQKQPDTMANRRAQKAARFKRQKAAETKLLEIKERKERRRRSLRAAALSAPIEAGEEDAFEDDGEEEREAWLATISLALCKAFDLLDMLKKEEEMLLAVKERQAKDGNAFAREMLDERTKKAEAWHHNAANRAPYSKPADPITCATFAQDVIEGRASVSQAHEHKHQPLIFGPASLVGGGLTSERERMAAQVFQPSYRLPTMSIEEAGLREMKMMEKWQERTAKMIQESNSAWHKDGSRSAQED | binds
Hypothetical Protein ORF020300-2233.2, Putative PP2A Regulatory Subunit, Similar to OsCAA90866, prey clone aa 118-388 (other, prey; AD fusion; input trait library; also called OsORF020300-2233.2) SQDHLKEFISICEALELISEDELELSRQKQPDTMANRRAQKAARFKRQKAAETKLLEIKERKERRRRSLRAAALSAPIEAGEEDAFEDDGEEEREAWLATISLALCKAFDLLDMLKKEEEMLLAVKERQAKDGNAFAREMLDERTKKAEAWHHNAANRAPYSKPADPITCATFAQDVIEGRASVSQAHEHKHQPLIFGPASLVGGGLTSERERMAAQVFQPSYRLPTMSIEEAGLREMKMMEKWQERTAKMIQESNSAWHKDGSRSAQEDE | binds
Novel Protein 23268, Similar to Phosphoribosylanthranilate Transferase, Chloroplast Precursor, Fragment, prey clone aa 12-200 (other, prey; AD fusion; input trait library; two clones; also called OsPN23268; Os23268) SEEEAEATLRLLLEEENEARIAAFLVLLRAKGETYEEIVGLAKAMIGCCVRVDGLDDAVDIVGTGGDGADTVNISTGSTILAAAAGAKVAKQGSRASSSACGSADGIKRCVNEVGVGFMMSANYHPAMKIVKPVRKKLKIKTVFNILGPLLNPARVPYAVIGVYHENIVTKMAKAAQKFGMKRALVVHS | binds

Target: T3, O. sativa Chilling-Inducible Protein …
Test: yeast two-hybrid

Binder | binding result
O. sativa Chilling-Inducible Protein CAA90866, prey clone aa 1-126 (other, prey; AD fusion; output trait library; also called OsCAA90866; PN20311) MVEVEEVSNKMQVQMRLHPAAAAEEEDADLPLPALFDKASHLHSLASSSSLDQEGIRKGVDLLRRCDEMVSKVGLFSSNETKDDISTANLKYLLVPYYLGEMTERVAQEDRIPVLKASQDHLKEFI | binds
Novel Protein PN23225, Similar to Triticum aestivum Initiation Factor (iso)4f p82 Subunit, prey clone aa 639-792 (other, prey; AD fusion; input trait library; also called OsPN23225) FGIRILDEAQQCIEELQCPEYYSEIVKEAINLALDKGPNFIDPLVRLLEHLHTKKIFKTEDLKTGCLLYAALLEDIGIDLPLAPALFGEVVARLSLSCSLSFEVVEEILKAVEDTYFRKGIFDAVMKTMGGNSSGQAILSSHAVVIDACNKLLK | binds
ILSKLVQAKELLKEYVEREKKKREERSETPKSNEAVTKFDGSLNSMRH (other, prey; AD fusion; input trait library; two clones; also called OsPN23045) [Novel Protein PN23045, prey clone aa 240-287] | binds
Hypothetical Protein ORF020300-2233.2, Putative PP2A Regulatory Subunit, Similar to OsCAA90866, prey clone aa 1-206 (other, prey; AD fusion; output trait library; three clones; also called OsORF020300-2233.2) MVEVEEVSNKMQAQMRLHPAAAAEEEDADLPLPALFDKASHLHSLASSSSLDQEGIRKGVDLLRRCDEMVSKLGLFSSNETKDDVSTANLKYLLVPYYLGEMTERVAQEDRIPVLKASQDHLKEFISICEALELISEDELELSRQKQPDTMANRRAQKAARFKRQKAAETKLLEIKERKERRRRSLRAAALSAPIEAGEEDAFEDD | binds
Hypothetical Protein ORF020300-2233.2, Putative PP2A Regulatory Subunit, Similar to OsCAA90866, prey clone aa 1-190 (other, prey; AD fusion; output trait library; three clones; also called OsORF020300-2233.2) MVEVEEVSNKMQAQMRLHPAAAAEEEDADLPLPALFDKASHLHSLASSSSLDQEGIRKGVDLLRRCDEMVSKLGLFSSNETKDDVSTANLKYLLVPYYLGEMTERVAQEDRIPVLKASQDHLKEFISICEALELISEDELELSRQKQPDTMANRRAQKAARFKRQKAAETKLLEIKERKERRRRSLRAAA | binds
O. sativa Putative Pyrrolidone Carboxyl Peptidase, prey clone aa 92-222 (other, prey; AD fusion; input trait library; two clones; also called OsAAG46136; PN23186) FGVNSGTTRFALENQAINEATFRCPDELGWKPQRAPIVSSDGSISNLRKTTVPVNEVNKSLQQMGFDVAPSDDAGRFVCNYVYYQSLRFAEQRGIKSLFVHFPLFTTISEEVQMNFVATLLEVLASQNYAQ | binds
Novel Protein PN29883, Fragment, prey clone aa 58-175 (other, prey; AD fusion; output trait library; also called OsPN29883) YGQLKAAQPFFLLAGPNVIESEEHVLKMAKHIKGITTKLGLPLVFKSSFDKANRTSSKSFRGPGLEEGLKILEKVKATYDIPVVTDVHESHQCEAAGRVADIIQIPAFFCRQTDLLVA | binds
